What was measured:
Assay type in all cases: binding
disheveled = experiment: Yeast two hybrid assay, interaction with disheveled; details: beta-galactosidase filter assay in S. cerevisiae
Text: (§1) FL Xaxin was cloned in frame with the GAL4 DNA binding domain (BD) in plasmid pAS2-1 (Clontech) to yield BD plasmid. Expression of BD plasmid yielded a Xaxin-GAL4 fusion protein. FL Xaxin, deltaDIX Xaxin, and a fragment (designated “AID”) encoding amino acid residues 489-777 of Xaxin were cloned in frame with the GAL4 transcriptional activation domain (AD) in the vector pACT2 to yield AD plasmids. Yeast were transformed with BD and AD plasmids using previously described protocols (Clontech, Palo Alto, Calif.). Transformed colonies were selected and assayed for beta-galactosidase activity in order to detect interacting proteins. In addition, three Xenopus axin partial length cDNAs (designated Y2H 2, Y2H 6, Y2H 7; all in plasmid pACT2) isolated from a previous yeast two hybrid screen (Hedgepeth et al., 1999, Mech. Develop. 80:147-151) were analyzed. Purification of GID
(§2) Using the yeast two hybrid assay, the ability of axin to bind with itself, with other members of the wnt pathway, or with the G(alpha)q subunit of heterotrimeric G-proteins, was investigated. […]
(§3) Saccharomyces cerevisiae cells were transformed with the bait vector and with one of the target vectors. Interaction was assessed using a filter assay to detect beta-galactosidase activity, as described (Fields et al., 1989, Nature 340:245-247; Harper et al., 1993, Cell 75:805-816). […]

GSK-3 beta = experiment: Co-immunoprecipitation of GSK-3 beta with Myc-tagged Xaxin constructs in Xenopus oocytes; details: Myc-tagged construct co-expressed with GSK-3 beta in Xenopus oocytes; anti-Myc IP, anti-GSK-3 beta blot
FL Xaxin = molecular target: T1, FL Xaxin (Xenopus laevis, UniProt Q9YGY0); experiment: Yeast two hybrid assay, interaction with FL Xaxin; details: beta-galactosidase filter assay in S. cerevisiae
T1 construct: expressed in transfected cells; host or cells: Saccharomyces cerevisiae
Text: as §1, §2, §3

B1: full length Xaxin: full length Xenopus axin, amino acid residues 1-842 (SEQ ID NO: 8) (protein, listed as Xenopus laevis)
chain: MSVKGKGFPLDLGGSFTEDAPRPPVPGEEGELITTDQRPFSHTYYSLKNDGIKNETSTATPRRPDLDLGYEPEGSASPTPPYLKWAESLHSLLDDQDGIHLFRTFLQQENCADLLDFWFACSGFRKLEPNDSKVEKRLKLAKAIYKKYVLDSNGIVSRQIKPATKSFIKDCVLRQQIDPAMFDQAQMEIQSMMEDNTYPVFLKSDIYLEYTTIGGESPKNYSDQSSGSGTGKGPSGYLPTLNEDEEWRCDQGGEHERERECIPSSLFSQKLALDSSSHCAGSNRRLSDGREFRPGTWREPVNPYYVNTGYAGAPVTSANDSEQQSMSSDADTMSLTDSSVDGIPPYRLRKHYRREMQESANANGRGPLPHIPRTYHMPKDIHVDPEKFAAELISRLEGVLRDREAEQKLEERLKRVRAEEEGDDGDVSSGPSVISHKLPSGPPMHHFNSRYSETGCVGMQIRDAHEENPESILDEHVQRVMKTPGCQSPGTGRHSPKSRSPDGHLSKTLPGSLGTMQTGHGKHSSKSTAKVDSGNLHHHKHVYHHVHHHGGVKPKEQIDGESTQRVQTNFPWNVESHNYATKSRNYAESMGMAPNPMDSLAYSGKVSMLSKRNAKKADLGKSESASHEMPVVPEDSERHQKILQWIMEGEKEIIRHKKSNHSSSSAKKQPPTELARPLSIERPGAVHPWVSAQLRNVVQPSHPFIQDPTMPPNPAPNPLTQLVSKPGARLEEEEKKAAKMPQKQRLKPQKKNVSAPSQPCDNIVVAYYFCGEPIPYRTMVKGRVVTLGQFKELLTKKGNYRYYFKKVSDEFDCGVVFEEVREDDMILPIYEEKIIGQVEKID
interaction with disheveled (disheveled): did not interact | binding with GSK-3 beta (co-immunoprecipitation) (GSK-3 beta): bound | interaction with FL Xaxin (self-interaction) (FL Xaxin): interacted strongly

Source: US20010052137A1, “Axin domain-like polypeptide inhibitors of glycogen synthase kinase 3 beta activity and activators of wnt signaling” (Trustees of the University of Pennsylvania, priority 2000, published 2001)
